These results are taken from US5837843, “Modified protein C” (Oklahoma Medical Research Foundation, dated 1998).

The target of assay [1] is human activated protein C (APC), wild type (human, UniProt P04070, gamma carboxylglutamic acid (Gla) residues in the amino-terminal Gla domain (x in Sequence ID No. 2); Gla content 8.7±0.3 per mole for protein C). As to the kind of experiment: cell-based or functional assay.

For “APC-PT Gla (activated chimeric protein C with the Gla domain and hydrophobic stack of prothrombin) (from UniProt P04070) (enzyme)”, the factor Va inactivation (three stage assay, residual factor Va activity in prothrombinase) (times more active than wild type APC) in the assay with factor Va turned out to be 5.

B1: human protein S (other)
chain: ANSLLEETKQGNLERECIEELCNKEEAREVFENDPETDYFYPKYLVCLRSFQTGLFTAARQSTNAYPDLRSCVNAIPDQCSPLPCNEDGYMSCKDGKASFTCTCKPGWQGEKCEFDINECKDPSNINGGCSQICDNTPGSYHCSCKNGFVMLSNKKDCKDVDECSLKPSICGTAVCKNIPGDFECECPEGYRYNLKSKSCEDIDECSENMCAQLCVNYPGGYTCYCDGKKGFKLAQDQKSCEVVSVCLPLNLDTKYELLYLAEQFAGVVLYLKFRLPEISRFSAEFDFRTYDSEGVILYAESIDHSAWLLIALRGGKIEVQLKNEHTSKITTGGDVINNGLWNMVSVEELEHSISIKIAKEAVMDINKPGPLFKPENGLLETKVYFAGFPRKVESELIKPINPRLDGCIRSWNLMKQGASGIKEIIQEKQNKHCLVTVEKGSYYPGSGIAQFHIDYNNVSSAEGWHVNVTLNIRPSTGTGVMLALVSGNNTVPFAVSLVDSTSEKSQDILLSVENTVIYRIQALSLCSDQQSHLEFRVNRNNLELSTPLKIETISHEDLQRQLAVLDKAMKAKVATYLGGLPDVPFSATPVNAFYNGCMEVNINGVQLDLDEAISKHNDIRAHSCPSVWKKTKNS
In the case of B1, the “factor Va inactivation by APC with and without protein S” value in assay [1] amounted to 2 fold.
